The series deals with the molecule itself. As to the kind of experiment: single-molecule photobleaching step counting.

B1: GFP-TAX-4 (cyclic nucleotide-gated TAX-4 ion channel with EGFP fused to the cytosolic N-terminus) (natural protein, C. elegans, UniProt Q03611 1-733, looked up)
chain: MSTAEPAPDPTNPSTSGLAPTTNGIGSPPPTASAATKFSILTKFLRRKNQVHTTTAQQNEFMQKYMPNGNSNAVQPAATGGQPASSDGGSAIEVPPPKESYAVRIRKYLANYTQDPSTDNFYYWTCVVTVAYIYNLLFVIARQVFNDLIGPSSQSLCRFYNGTLNSTTQVECTYNMLTNMKEMPTYSQYPDLGWSKYWHFRMLWVFFDLLMDCVYLIDTFLNYRMGYMDQGLVVREAEKVTKAYWQSKQYRIDGISLIPLDYILGWPIPYINWRGLPILRLNRLIRYKRVRNCLERTETRSSMPNAFRVVVVVWYIVIIIHWNACLYFWISEWIGLGTDAWVYGHLNKQSLPDDITDTLLRRYVYSFYWSTLILTTIGEVPSPVRNIEYAFVTLDLMCGVLIFATIVGNVGSMISNMSAARTEFQNKMDGIKQYMELRKVSKQLEIRVIKWFDYLWTNKQSLSDQQVLKVLPDKLQAEIAMQVHFETLRKVRIFQDCEAGLLAELVLKLQLQVFSPGDFICKKGDIGREMYIVKRGRLQVVDDDGKKVFVTLQEGSVFGELSILNIAGSKNGNRRTANVRSVGYTDLFVLSKTDLWNALREYPDARKLLLAKGREILKKDNLLDENAPEEQKTVEEIAEHLNNAVKVLQTRMARLIVEHSSTEGKLMKRIEMLEKHLSRYKALARRQKTMHGVSIDGGDISTDGVDERVRPPRLRQTKTIDLPTGTESESLLK
In general, stoichiometry N refers to the number of molecules, sites or subunits per partner or assembly. In the case of B1, the “stoichiometry N” value was 4.

Values taken from article doi:10.1101/2021.07.05.451181 (bioRxiv, 2021).
